Assay results reported in publication PMC4239663, “Structural basis for extracellular cis and trans RPTPσ signal competition in synaptogenesis” (Nature Communications, 2014).
Changes are numbered by the printed parent chain. In names and notes the source's numbering stands. Several values for one entry are separate records, joined by “and”; a condition that tells them apart may be missing. Equal values may be shown once.

How the values were obtained:
[1] = biological target: human RPTPσ Ig1–3 (human)
[2] = biological target: human RPTPσ Ig1–3 R227A+R228A (R228A+R229A in human numbering), C-terminal Avitag (human); assay: SPR; equilibrium; biotinylated human RPTPσ Ig1–3 (wild type or mutants) immobilized on streptavidin-coated CM5 chips, mouse TrkC LRRIg1 as analyte; 10 mM HEPES pH 7.5, 150 mM NaCl, 0.01% Tween 20, 25 °C
[3] = biological target: human RPTPσ Ig1–3 WT, C-terminal Avitag, immobilized (human); assay: as above
[4] = biological target: T1, mouse TrkC LRRIg1, C-terminal Avitag, immobilized (mouse, UniProt Q6VNS1 32-302, biotin on the Avitag (enzymatic)); assay: SPR
T1 chain: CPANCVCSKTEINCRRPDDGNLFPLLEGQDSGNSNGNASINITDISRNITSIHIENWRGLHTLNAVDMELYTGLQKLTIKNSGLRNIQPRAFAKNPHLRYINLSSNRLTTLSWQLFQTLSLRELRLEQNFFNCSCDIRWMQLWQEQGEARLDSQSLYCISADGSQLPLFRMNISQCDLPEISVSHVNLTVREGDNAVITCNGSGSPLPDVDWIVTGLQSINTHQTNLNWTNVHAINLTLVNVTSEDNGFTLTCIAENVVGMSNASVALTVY

mouse NGL-3 Ecto = biological target: T2, mouse NGL-3 Ecto (mouse, UniProt P0C192 39-574, biotin on the Avitag (enzymatic)); assay: SPR
T2 chain: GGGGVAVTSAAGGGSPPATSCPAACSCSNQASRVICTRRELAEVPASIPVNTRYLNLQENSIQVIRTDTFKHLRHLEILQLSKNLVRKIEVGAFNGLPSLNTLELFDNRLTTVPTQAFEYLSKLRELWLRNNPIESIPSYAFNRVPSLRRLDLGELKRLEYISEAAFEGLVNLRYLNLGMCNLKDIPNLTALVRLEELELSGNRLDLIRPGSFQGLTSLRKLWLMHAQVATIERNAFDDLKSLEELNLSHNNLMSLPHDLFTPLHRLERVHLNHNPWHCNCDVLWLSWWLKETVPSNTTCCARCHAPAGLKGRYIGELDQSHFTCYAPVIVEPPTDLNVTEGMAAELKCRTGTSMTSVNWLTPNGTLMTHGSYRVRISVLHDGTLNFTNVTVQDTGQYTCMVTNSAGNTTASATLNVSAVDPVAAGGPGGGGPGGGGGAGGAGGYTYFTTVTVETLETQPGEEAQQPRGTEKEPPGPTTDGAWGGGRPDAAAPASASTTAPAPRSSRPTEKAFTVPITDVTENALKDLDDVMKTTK

[5] = biological target: mouse TrkC LRRIg1, C-terminal Avitag, immobilized (mouse) (UniProt Q6VNS1); assay: SPR; equilibrium; biotinylated mouse TrkC LRRIg1 (wild type or D240A+D242A) immobilized on streptavidin-coated CM5 chips, human RPTP proteins as analytes; 10 mM HEPES pH 7.5, 150 mM NaCl, 0.01% Tween 20, 25 °C; in Fig. 6a also with increasing HS or heparin-dp10
[6] = biological target: T3, mouse TrkC LRRIg1 (soluble) (mouse, UniProt Q6VNS1 32-302); assay: SPR
T3 chain: T1 chain

mouse TrkC LRRIg1 2Q = biological target: T4, mouse TrkC LRRIg1 2Q (Mus musculus); assay: SPR
T4 chain: T1 chain with N37Q, N41Q

[7] = biological target: chicken TrkC LRRIg1 2N, C-terminal Avitag, immobilized (chicken, UniProt Q91044 32-302, N163Q | N232Q | N259Q | N267Q | N294Q, biotin on the Avitag (enzymatic)); assay: SPR
chicken RPTPσ Ig1–3 = chicken RPTPσ Ig1–3 (chicken, UniProt F1NWE3 29-316); assay: SPR; equilibrium; biotinylated chicken TrkC LRRIg1 variants immobilized on streptavidin-coated CM5 chips, chicken RPTPσ Ig1–3 as analyte; 10 mM HEPES pH 7.5, 150 mM NaCl, 0.01% Tween 20, 25 °C; 1 M MgCl2 regeneration for LRRIg1 2Q; details: both partners purified

mouse TrkC LRRIg1, C-terminal Avitag, immobilized (from UniProt Q6VNS1 32-302) (domain or fragment)
induced presynaptic differentiation in rat hippocampal neurons co-cultured with COS-7 cells expressing mouse TrkC TM, with heparin-dp10 (30 μg/ml, ~10 μM) against mock [1]: 2 fold

mouse TrkC LRRIg1 (soluble) (from UniProt Q6VNS1 32-302) (domain or fragment)
Kd [2]: 7 µM | Kd [3]: 1800 nM

B1: human RPTPσ Ecto (domain or fragment)
chain: EEPPRFIKEPKDQIGVSGGVASFVCQATGDPKPRVTWNKKGKKVNSQRFETIEFDESAGAVLRIQPLRTPRDENVYECVAQNSVGEITVHAKLTVLREDQLPSGFPNIDMGPQLKVVERTRTATMLCAASGNPDPEITWFKDFLPVDPSASNGRIKQLRSGALQIESSEETDQGKYECVATNSAGVRYSSPANLYVRVRRVAPRFSILPMSHEIMPGGNVNITCVAVGSPMPYVKWMQGAEDLTPEDDMPVGRNVLELTDVKDSANYTCVAMSSLGVIEAVAQITVKSLPKAPGTPMVTENTATSITITWDSGNPDPVSYYVIEYKSKSQDGPYQIKEDITTTRYSIGGLSPNSEYEIWVSAVNSIGQGPPSESVVTRTGEQAPASAPRNVQARMLSATTMIVQWEEPVEPNGLIRGYRVYYTMEPEHPVGNWQKHNVDDSLLTTVGSLLEDETYTVRVLAFTSVGDGPLSDPIQVKTQQGVPGQPMNLRAEARSETSITLSWSPPRQESIIKYELLFREGDHGREVGRTFDPTTSYVVEDLKPNTEYAFRLAARSPQGLGAFTPVVRQRTLQSISPKNFKVKMIMKTSVLLSWEFPDNYNSPTPYKIQYNGLTLDVDGRTTKKLITHLKPHTFYNFVLTNRGSSLGGLQQTVTAWTAFNLLNGKPSVAPKPDADGFIMVYLPDGQSPVPVQSYFIVMVPLRKSRGGQFLTPLGSPEDMDLEELIQDISRLQRRSLRHSRQLEVPRPYIAARFSVLPPTFHPGDQKQYGGFDNRGLEPGHRYVLFVLAVLQKSEPTFAASPFSDPFQLDNPDPQPIVDGEEG
Kd [4]: 1500 nM | Kd (mouse NGL-3 Ecto): > 7.3 µM | Kd [5]: 516 nM

B2: RPTPσ with the meB mini-exon inserted between R225 and V226 (domain or fragment)
chain: EEPPRFIKEPKDQIGVSGGVASFVCQATGDPKPRVTWNKKGKKVNSQRFETIEFDESAGAVLRIQPLRTPRDENVYECVAQNSVGEITVHAKLTVLREDQLPSGFPNIDMGPQLKVVERTRTATMLCAASGNPDPEITWFKDFLPVDPSASNGRIKQLRSGALQIESSEETDQGKYECVATNSAGVRYSSPANLYVRELREVRRVAPRFSILPMSHEIMPGGNVNITCVAVGSPMPYVKWMQGAEDLTPEDDMPVGRNVLELTDVKDSANYTCVAMSSLGVIEAVAQITVKSLPKA
Kd [6]: 4800 nM

B3: human RPTPσ Ig1–3 (domain or fragment)
chain: EEPPRFIKEPKDQIGVSGGVASFVCQATGDPKPRVTWNKKGKKVNSQRFETIEFDESAGAVLRIQPLRTPRDENVYECVAQNSVGEITVHAKLTVLREDQLPSGFPNIDMGPQLKVVERTRTATMLCAASGNPDPEITWFKDFLPVDPSASNGRIKQLRSGALQIESSEETDQGKYECVATNSAGVRYSSPANLYVRVRRVAPRFSILPMSHEIMPGGNVNITCVAVGSPMPYVKWMQGAEDLTPEDDMPVGRNVLELTDVKDSANYTCVAMSSLGVIEAVAQITVKSLPKA
Kd (mouse TrkC LRRIg1 2Q): 140 nM | Kd [5]: 258 nM

B4: human RPTPσ Ig1–3 WT, C-terminal Avitag, immobilized (domain or fragment)
chain: B3 chain
modifications: biotin on the Avitag (enzymatic)
Kd [6]: 580 nM and 551 nM

B5: human RPTPσ Ig1–3 ΔK (K68A+K69A+K71A+K72A) (domain or fragment)
chain: B3 chain with K39A, K40A, K42A, K43A
Kd [6]: 2800 nM

B6: chicken RPTPσ Ig1-3 ΔK (protein)
chain: ESPPVFIKKPVDQIGVSGGVASFVCQATGDPKPRVTWNAAGAAVNSQRFETIEFDESAGAVLRIQPLRTPRDENIYECVAQNPHGEVTVHAKLTVLREDQLPPGFPNIDMGPQLKVVERTRTATMLCAASGNPDPEITWFKDFLPVDPSTSNGRIKQLRSGGLQIESSEETDQGKYECVASNSAGVRYSSPANLYVRVRRVAPRFSILPVSHEIMPGGNVNITCVAVGSPMPYVKWMQGAEDLTPEDDMPVGRNVLELTDVKDSANYTCVAMSSLGVIEAVAQITVKS
Kd [7]: 2600 nM

B7: chicken TrkC LRRIg1 2N, C-terminal Avitag, immobilized (domain or fragment, UniProt Q91044 32-302, looked up)
chain: CPANCLCSKTDINCKKPDDGNLFPLLEGQDSGSSNGNTSINITDISRNITSIHIENWKNLQTLNAVDMELYTGLQRLTIRNSGLRNIQPRAFAKNPHLRYIDLSGNRLTTLSWQLFQTLRLFDLRLERNPFQCSCDIRWIQLWQEKGEANLQSQQLHCMNLDTAVILLRNMNITQCDLPEISVSHVNLTVREGENAVITCQGSGSPLPDVDWTVADLHSINTHQTNLQWTNVHAIQLTLVNVTSEDNGFLLTCIAENVVGMSQASVLLTVY
modifications: biotin on the Avitag (enzymatic)
notes: chicken TrkC LRRIg1, amino acids 32–302 of NCBI NM_205169.1, residues 63–77 re-added to LRRIg1cryst; not shown: Avitag (BirA recognition site), C-terminal, kept
Kd (chicken RPTPσ Ig1–3): 216 nM

B8: chicken TrkC LRRIg1 2Q, C-terminal Avitag, immobilized (domain or fragment, UniProt Q91044 32-302, looked up)
chain: B7 chain with N37Q, N41Q
modifications: biotin on the Avitag (enzymatic)
notes: chicken TrkC LRRIg1, amino acids 32–302 of NCBI NM_205169.1, residues 63–77 re-added with N68Q+N72Q; not shown: Avitag (BirA recognition site), C-terminal, kept
Kd (chicken RPTPσ Ig1–3): 38 nM

B9: chicken TrkC LRRIg1cryst, C-terminal Avitag, immobilized (domain or fragment, UniProt Q91044 32-302, looked up)
chain: CPANCLCSKTDINCKKPDDGNLFPLLEGQDSRNITSIHIENWKNLQTLNAVDMELYTGLQRLTIRNSGLRNIQPRAFAKNPHLRYIDLSGNRLTTLSWQLFQTLRLFDLRLERNPFQCSCDIRWIQLWQEKGEANLQSQQLHCMNLDTAVILLRNMNITQCDLPEISVSHVNLTVREGENAVITCQGSGSPLPDVDWTVADLHSINTHQTNLQWTNVHAIQLTLVNVTSEDNGFLLTCIAENVVGMSQASVLLTVY
modifications: biotin on the Avitag (enzymatic)
notes: chicken TrkC LRRIg1, amino acids 32–302 of NCBI NM_205169.1, lacking residues 63–77; not shown: Avitag (BirA recognition site), C-terminal, kept
Kd (chicken RPTPσ Ig1–3): 4800 nM

B10: chicken RPTPσ Ig1–3, C-terminal Avitag, immobilized (domain or fragment)
chain: ESPPVFIKKPVDQIGVSGGVASFVCQATGDPKPRVTWNKKGKKVNSQRFETIEFDESAGAVLRIQPLRTPRDENIYECVAQNPHGEVTVHAKLTVLREDQLPPGFPNIDMGPQLKVVERTRTATMLCAASGNPDPEITWFKDFLPVDPSTSNGRIKQLRSGGLQIESSEETDQGKYECVASNSAGVRYSSPANLYVRELREVRRVAPRFSILPVSHEIMPGGNVNITCVAVGSPMPYVKWMQGAEDLTPEDDMPVGRNVLELTDVKDSANYTCVAMSSLGVIEAVAQI
modifications: biotin on the Avitag (enzymatic)
Kd [7]: 2500 nM
